Measured values reported in US6395531.

Tested on: MlyI restriction endonuclease (Micrococcus lylae)
Test: cleavage_in_vitro
Details: recombinant MlyI yield approximately 50,000 units per gram of cells; assay substrate not stated

plasmid DNA with MlyI sites (sequence not printed)
activity (units/g cells): 50000
